Measurements reported in PMC9174126.

Target: collagen I coupled to the Biacore CM5 chip (UniProt P02452)
Experiment: SPR; Biacore; SPARC-WT and SPARC-Fut8KO on collagen I; responses compared at 300 s; sensorgrams shown in Fig. 2C of Ref. [20]

UniProt P02452, sequence (P02452 23-1218, chain 1 of 2): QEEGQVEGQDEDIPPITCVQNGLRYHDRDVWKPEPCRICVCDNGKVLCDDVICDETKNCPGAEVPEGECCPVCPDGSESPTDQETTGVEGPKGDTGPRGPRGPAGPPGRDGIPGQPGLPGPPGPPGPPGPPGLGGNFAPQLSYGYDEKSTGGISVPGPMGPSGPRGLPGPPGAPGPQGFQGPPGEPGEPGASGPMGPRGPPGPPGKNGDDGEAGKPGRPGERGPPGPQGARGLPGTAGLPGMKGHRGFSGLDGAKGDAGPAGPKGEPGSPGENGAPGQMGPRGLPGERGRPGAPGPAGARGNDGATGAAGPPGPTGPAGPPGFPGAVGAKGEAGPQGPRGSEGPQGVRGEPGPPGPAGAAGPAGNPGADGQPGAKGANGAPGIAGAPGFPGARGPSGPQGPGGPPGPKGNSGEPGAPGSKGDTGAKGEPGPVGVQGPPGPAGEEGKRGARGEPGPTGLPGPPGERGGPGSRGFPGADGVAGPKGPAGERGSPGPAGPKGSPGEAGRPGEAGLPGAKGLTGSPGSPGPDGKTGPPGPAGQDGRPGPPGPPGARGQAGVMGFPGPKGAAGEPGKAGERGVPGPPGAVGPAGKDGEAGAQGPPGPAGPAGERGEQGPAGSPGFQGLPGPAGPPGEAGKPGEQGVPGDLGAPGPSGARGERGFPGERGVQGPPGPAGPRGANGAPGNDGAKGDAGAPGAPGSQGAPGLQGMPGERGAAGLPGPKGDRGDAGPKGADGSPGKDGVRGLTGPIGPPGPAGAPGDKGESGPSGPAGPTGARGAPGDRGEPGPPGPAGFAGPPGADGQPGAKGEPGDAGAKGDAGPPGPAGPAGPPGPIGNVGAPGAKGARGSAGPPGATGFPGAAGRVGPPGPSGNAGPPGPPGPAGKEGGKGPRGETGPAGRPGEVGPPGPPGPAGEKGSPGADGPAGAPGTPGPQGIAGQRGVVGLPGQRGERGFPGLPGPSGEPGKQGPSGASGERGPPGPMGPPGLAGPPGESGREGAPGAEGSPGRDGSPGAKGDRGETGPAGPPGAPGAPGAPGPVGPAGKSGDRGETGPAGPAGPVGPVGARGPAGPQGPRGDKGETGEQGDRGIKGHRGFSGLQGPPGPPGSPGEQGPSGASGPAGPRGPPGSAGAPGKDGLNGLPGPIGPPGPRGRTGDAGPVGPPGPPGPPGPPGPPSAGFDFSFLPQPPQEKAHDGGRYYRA
UniProt P02452, sequence (P08123 80-1119, chain 2 of 2, further chain): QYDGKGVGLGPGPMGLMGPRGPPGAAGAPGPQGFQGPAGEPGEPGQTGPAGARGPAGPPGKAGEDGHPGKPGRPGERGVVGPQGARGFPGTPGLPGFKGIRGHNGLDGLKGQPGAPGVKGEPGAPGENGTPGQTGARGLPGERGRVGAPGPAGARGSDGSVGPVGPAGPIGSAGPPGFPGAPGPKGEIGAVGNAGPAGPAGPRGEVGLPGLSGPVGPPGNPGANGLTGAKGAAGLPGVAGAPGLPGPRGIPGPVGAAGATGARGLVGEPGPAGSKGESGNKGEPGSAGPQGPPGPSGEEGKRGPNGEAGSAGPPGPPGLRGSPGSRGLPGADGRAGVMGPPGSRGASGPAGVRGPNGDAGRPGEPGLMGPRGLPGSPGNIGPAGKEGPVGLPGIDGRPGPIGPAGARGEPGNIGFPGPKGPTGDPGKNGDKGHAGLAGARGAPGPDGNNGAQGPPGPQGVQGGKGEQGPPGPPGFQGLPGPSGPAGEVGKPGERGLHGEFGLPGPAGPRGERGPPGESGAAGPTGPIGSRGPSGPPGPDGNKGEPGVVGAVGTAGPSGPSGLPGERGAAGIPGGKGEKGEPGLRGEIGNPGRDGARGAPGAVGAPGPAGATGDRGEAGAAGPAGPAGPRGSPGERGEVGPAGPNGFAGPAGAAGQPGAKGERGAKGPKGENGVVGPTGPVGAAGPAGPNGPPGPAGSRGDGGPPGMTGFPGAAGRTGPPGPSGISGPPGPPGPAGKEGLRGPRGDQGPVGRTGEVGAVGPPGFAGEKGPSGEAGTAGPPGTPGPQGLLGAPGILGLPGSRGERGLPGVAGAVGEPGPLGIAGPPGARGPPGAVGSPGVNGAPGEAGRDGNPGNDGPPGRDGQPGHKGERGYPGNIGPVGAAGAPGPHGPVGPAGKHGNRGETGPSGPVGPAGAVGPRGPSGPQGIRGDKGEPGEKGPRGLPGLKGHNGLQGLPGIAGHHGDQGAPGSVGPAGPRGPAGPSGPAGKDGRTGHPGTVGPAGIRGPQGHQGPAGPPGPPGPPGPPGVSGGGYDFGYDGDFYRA

B1: recombinant His-tagged human SPARC from FUT8-knockout HEK-293T cells (SPARC-Fut8KO), not core-fucosylated (natural protein)
chain: APQQEALPDETEVVEETVAEVTEVSVGANPVQVEVGEFDDGAEETEEEVVAENPCQNHHCKHGKVCELDENNTPMCVCQDPTSCPAPIGEFEKVCSNDNKTFDSSCHFFATKCTLEGTKKGHKLHLDYIGPCKYIPPCLDSELTEFPLRMRDWLKNVLVTLYERDEDNNLLTEKQKLRVKKIHENEKRLEAGDHPVELLARDFEKNYNMYIFPVHWQFGQLDQHPIDGYLSHTELAPLRAPLIPMEHCTTRFFETCDLDNDKYIALDEWAGCFGIKQKDIDKDLVI
modifications: not core-fucosylated at N116
B1 was tested, and the binding response (RU) relative to SPARC-WT at 300 s was 40%.
